From patent US20140271478A1 (University of California, published 2014)
Changes are numbered by the printed parent chain.

T1: mouse integrin β8 (mouse, UniProt Q0VBD0 22-767)
T1 construct: whole, on cells; also called mouse β8; itgb8
T1 sequence (looked up): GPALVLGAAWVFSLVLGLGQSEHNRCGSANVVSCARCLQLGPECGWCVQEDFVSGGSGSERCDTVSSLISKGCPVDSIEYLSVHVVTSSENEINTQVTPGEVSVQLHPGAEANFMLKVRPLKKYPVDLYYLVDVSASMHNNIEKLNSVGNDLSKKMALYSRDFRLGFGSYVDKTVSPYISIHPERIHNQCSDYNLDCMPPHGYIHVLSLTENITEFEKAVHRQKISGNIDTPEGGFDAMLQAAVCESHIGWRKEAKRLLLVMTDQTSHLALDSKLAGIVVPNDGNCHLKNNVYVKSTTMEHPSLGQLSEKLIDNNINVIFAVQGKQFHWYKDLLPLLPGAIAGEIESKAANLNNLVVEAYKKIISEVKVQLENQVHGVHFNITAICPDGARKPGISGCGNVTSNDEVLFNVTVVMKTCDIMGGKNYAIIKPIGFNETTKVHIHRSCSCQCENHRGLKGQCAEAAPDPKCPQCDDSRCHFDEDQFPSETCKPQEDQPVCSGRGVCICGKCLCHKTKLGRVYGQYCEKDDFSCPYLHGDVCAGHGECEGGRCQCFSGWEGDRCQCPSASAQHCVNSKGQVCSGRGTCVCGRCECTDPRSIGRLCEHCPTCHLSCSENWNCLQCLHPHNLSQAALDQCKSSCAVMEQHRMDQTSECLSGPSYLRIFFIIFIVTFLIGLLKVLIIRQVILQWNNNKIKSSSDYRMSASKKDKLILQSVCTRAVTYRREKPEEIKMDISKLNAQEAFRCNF

T2: human integrin β8 swap construct KKMALF (SEQ ID NO:132) (human, UniProt P26012 43-769)
T2 sequence: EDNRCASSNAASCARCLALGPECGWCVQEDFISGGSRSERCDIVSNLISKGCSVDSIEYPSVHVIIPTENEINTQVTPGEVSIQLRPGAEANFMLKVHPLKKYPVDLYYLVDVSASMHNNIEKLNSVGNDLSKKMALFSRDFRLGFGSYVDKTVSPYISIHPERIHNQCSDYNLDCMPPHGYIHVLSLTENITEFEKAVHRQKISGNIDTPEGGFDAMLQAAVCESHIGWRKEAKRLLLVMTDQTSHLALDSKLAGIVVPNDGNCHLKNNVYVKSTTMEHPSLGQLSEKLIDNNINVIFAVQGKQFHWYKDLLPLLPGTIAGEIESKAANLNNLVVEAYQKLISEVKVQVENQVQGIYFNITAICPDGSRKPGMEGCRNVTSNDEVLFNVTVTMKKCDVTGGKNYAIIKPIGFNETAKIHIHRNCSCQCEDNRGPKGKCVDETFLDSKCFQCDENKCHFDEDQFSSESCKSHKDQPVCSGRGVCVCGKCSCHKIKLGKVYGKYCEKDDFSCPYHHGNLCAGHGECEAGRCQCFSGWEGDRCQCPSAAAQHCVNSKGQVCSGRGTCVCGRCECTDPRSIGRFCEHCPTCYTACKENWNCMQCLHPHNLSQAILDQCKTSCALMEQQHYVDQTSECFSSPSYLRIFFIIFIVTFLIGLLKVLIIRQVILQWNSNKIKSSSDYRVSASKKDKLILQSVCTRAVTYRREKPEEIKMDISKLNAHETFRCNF

T3: human integrin β8 swap construct RKMALY (SEQ ID NO:129) (human, UniProt P26012 43-769)
T3 sequence: T2 sequence with K133R, F138Y

B1: 37E1B5 antibody (antibody, V domains shown)
VH: EVQLVESGGGLVQPGGSLNLSCAVSGFVFSRYWMSWVRQAPGKGLEWIGEINPDSSTINYTSSLKDKFIISRDNAKNTLYLQMNKVRSEDTALYYCACLITTEDYWGQGTSVTVSS
VL: QIVLTQSPSSMYASLGERVTIPCKASQDINSYLSWFQQKPGKSPKTLIYYANRLVDGVPSRFSGSGSGQDYSLTISSLEYEDMGIYYCLQYDEFPYTFGGGTKLEIK
B2: 14E5 antibody (antibody, V domains shown)
VH: EVQLQQSGAELMKPGASVKISCKATGYTFSTYWIEWIKQRPGHGLEWIGHILPGSVITNYNEKFKGKAAITADTSSNTSYMQLSSLTSEDSAVYYCARWGWDSYWGQGTLVTVSS
VL: DIEMTQSPSSLSASLGDRVTISCSTSQDISSSLNWYQQKPDGTVTLLIYYTSNLHSGVPSRFSGSGSGTDYSLTISNLEPEDIATYYCQQYSKLPYTFGGGTKLEIKR
notes: Mouse hybridoma antibody; also called hybridoma clone 14E5
B3: 11E8 antibody (antibody, V domains shown)
VH: EVQLQQSGPELMKTGASVKISCKATGYTFSSYWIEWVKQRPGHGLEWIGDILPGSGTTNYNEKFKGRATVTADRSSNTAYMQLSSLTYGDSAVYYCATWGWDTYWDQGTSVTVSS
VL: B2 VL with E3V, T25A, D28G, S31N, S32Y, T45K, N53S, K93N
notes: Mouse hybridoma antibody

Tests used:
mouse integrin β8 [1] = target: T1, mouse integrin β8; assay: cell staining of β8 amino acid swap constructs (175-180)
[2] = target: T2, human integrin β8 swap construct KKMALF …; assay: as above
[3] = target: T3, human integrin β8 swap construct RKMALY …; assay: as above
[4] = target: T4, human integrin αβ8 (αvβ8) expressed on cells (human, UniProt P06756 31-1048); assay: as above
T4 construct: whole, on cells; β8 transfected into or endogenous on cells, unfixed or formalin fixed; also called human integrin β8; ITGB8
T4 sequence (P06756 31-1048): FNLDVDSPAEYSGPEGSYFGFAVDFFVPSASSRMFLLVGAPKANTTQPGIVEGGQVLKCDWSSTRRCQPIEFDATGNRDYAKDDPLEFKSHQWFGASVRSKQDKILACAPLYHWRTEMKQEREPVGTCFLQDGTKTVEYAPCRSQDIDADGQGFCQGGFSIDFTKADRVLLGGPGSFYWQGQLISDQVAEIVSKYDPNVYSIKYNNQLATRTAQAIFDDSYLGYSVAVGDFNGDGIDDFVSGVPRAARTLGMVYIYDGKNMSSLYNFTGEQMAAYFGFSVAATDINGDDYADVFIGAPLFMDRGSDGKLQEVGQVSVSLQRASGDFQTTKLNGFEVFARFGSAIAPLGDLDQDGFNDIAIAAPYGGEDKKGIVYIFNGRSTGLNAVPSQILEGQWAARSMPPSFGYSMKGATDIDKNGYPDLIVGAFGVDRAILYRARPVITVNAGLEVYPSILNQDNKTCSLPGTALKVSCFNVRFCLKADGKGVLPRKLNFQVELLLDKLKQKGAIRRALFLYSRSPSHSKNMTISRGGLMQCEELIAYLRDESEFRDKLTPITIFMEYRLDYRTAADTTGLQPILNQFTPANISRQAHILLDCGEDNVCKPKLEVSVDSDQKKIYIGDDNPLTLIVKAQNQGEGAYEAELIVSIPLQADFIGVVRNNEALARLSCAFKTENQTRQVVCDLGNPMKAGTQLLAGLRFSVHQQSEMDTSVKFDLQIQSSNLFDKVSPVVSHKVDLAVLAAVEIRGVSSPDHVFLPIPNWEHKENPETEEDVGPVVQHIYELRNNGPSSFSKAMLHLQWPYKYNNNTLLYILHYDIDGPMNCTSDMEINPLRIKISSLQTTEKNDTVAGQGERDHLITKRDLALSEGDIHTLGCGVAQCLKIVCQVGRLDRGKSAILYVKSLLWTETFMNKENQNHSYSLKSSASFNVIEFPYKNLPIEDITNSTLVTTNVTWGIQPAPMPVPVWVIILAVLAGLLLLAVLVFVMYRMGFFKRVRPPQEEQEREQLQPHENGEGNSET

mouse integrin β8 [5] = target: T1, mouse integrin β8; assay: cell surface staining, flow cytometry

Row | Binder | % positive (mouse integrin β8 [1]) [%] | % positive [2] [%] | % positive [3] [%] | % positive [4] [%] | binding result (mouse integrin β8 [5])
1 | B1 | 0 | 31 | 14 | 108 | –
2 | B2 | 0 | 1 | 1 | 112 | no binding
3 | B3 | 0 | 3 | 4 | 97 | no binding
